Data set [1] concerns the target T1, condensin hinge (Smc2/Smc4 hinge heterodimer) (Saccharomyces cerevisiae, UniProt P38989;Q12267 396-792;555-951).
T1 sequence 1: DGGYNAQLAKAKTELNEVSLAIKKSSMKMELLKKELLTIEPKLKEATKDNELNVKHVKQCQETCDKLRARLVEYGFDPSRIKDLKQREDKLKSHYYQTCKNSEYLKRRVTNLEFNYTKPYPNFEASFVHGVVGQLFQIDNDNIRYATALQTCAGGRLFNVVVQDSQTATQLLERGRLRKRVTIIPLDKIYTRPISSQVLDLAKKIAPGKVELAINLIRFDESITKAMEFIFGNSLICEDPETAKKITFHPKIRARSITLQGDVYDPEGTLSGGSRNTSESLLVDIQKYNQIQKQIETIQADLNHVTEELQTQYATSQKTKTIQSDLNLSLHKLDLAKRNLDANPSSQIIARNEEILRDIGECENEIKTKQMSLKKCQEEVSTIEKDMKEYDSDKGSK
T1 sequence 2: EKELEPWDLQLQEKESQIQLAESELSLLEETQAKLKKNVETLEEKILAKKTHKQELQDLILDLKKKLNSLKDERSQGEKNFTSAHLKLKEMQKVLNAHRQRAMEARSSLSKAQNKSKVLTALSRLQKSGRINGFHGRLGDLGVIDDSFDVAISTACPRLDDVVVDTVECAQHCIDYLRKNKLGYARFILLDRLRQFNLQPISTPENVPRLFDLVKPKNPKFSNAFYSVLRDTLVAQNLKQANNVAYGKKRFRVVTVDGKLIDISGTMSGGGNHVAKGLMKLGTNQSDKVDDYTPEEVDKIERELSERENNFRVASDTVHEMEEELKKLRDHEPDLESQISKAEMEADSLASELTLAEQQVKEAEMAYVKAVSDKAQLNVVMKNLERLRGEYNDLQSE
The data set can be described thus: fluorescence polarization; 20 nM DNA; 5 mM MgCl2; EMSA: 50 mM Tris-HCl pH 7.5, 50 mM KCl, 125 mM NaCl, 5 mM MgCl2, 5% glycerol, 1 mM DTT, 10 min on ice, gel at 4 C; FP: 25 mM Tris-HCl pH 7.5, 100 mM NaCl, 5 mM. The following applies: protein: recombinant; tags: N-terminal His6-TEV on Smc2; Smc4 untagged; copies: 1;1; label: 5' 6-FAM on strand 1; blunt.

For data set [2], the target named is T1, condensin hinge (Smc2/Smc4 hinge …). In words: EMSA; 10 nM DNA; 5 mM MgCl2; Fig. 2c legend gives 0.2-0.3 uM and a 25 bp oligo; EMSA: 50 mM Tris-HCl pH 7.5, 50 mM KCl, 125 mM NaCl, 5 mM MgCl2, 5% glycerol, 1 mM DTT, 10 min on ice, gel at 4 C; FP: 25 mM Tris-HCl pH 7.5, 100 mM NaCl, 5 mM. The following applies: protein: recombinant; tags: N-terminal His6-TEV on Smc2; Smc4 untagged; copies: 1;1; label: 5' 6-FAM on strand 1; blunt. (In general: Mobility shift assays separate free from complexed probe on a gel.)

In general, Kd refers to the constant that tells how readily two partners part at equilibrium.

B1: 6-FAM 50-bp dsDNA (dsDNA)
DNA 1: GGATACGTAACAACGCTTATGCATCGCCGCCGCTACATCCCTGAGCTGAC
DNA 2: GTCAGCTCAGGGATGTAGCGGCGGCGATGCATAAGCGTTGTTACGTATCC
B1: the Kd is approximately 700 nM in data set [1] and approximately 141 nM in data set [2].

The values above are taken from paper doi:10.1101/2025.06.04.657969, “Complex rheology of condensin in entangled DNA”.
